Assays:
[1] = target: the molecule itself; assay: cryo-EM structure
[2] = target: the molecule itself; assay: cryo-EM structure; remark: listed apart in the source

B1: human MCU (subunit of the purified uniplex) (natural protein, UniProt Q8NE86 51-351, looked up)
chain: VHQRIASWQNLGAVYCSTVVPSDDVTVVYQNGLPVISVRLPSRRERCQFTLKPISDSVGVFLRQLQEEDRGIDRVAIYSPDGVRVAASTGIDLLLLDDFKLVINDLTYHVRPPKRDLLSHENAATLNDVKTLVQQLYTTLCIEQHQLNKERELIERLEDLKEQLAPLEKVRIEISRKAEKRTTLVLWGGLAYMATQFGILARLTWWEYSWDIMEPVTYFITYGSAMAMYAYFVMTRQEYVYPEARDRQYLLFFHKGAKKSRFDLEKYNQLKDAIAQAEMDLKRLRDPLQVHLPLRQIGEKD
Question: With B1 as the protein, how does the “stoichiometry N” value [1] read?
Answer: 4

B2: human MICU2 (subunit of the purified uniplex) (natural protein, UniProt Q8IYU8 23-434, looked up)
chain: AVSRQAVRSPGPLAAAVAGAALAGAGAAWHHSRVSVAARDGSFTVSAQKNVEHGIIYIGKPSLRKQRFMQFSSLEHEGEYYMTPRDFLFSVMFEQMERKTSVKKLTKKDIEDTLSGIQTAGCGSTFFRDLGDKGLISYTEYLFLLTILTKPHSGFHVAFKMLDTDGNEMIEKREFFKLQKIISKQDDLMTVKTNETGYQEAIVKEPEINTTLQMRFFGKRGQRKLHYKEFRRFMENLQTEIQEMEFLQFSKGLSFMRKEDFAEWLLFFTNTENKDIYWKNVREKLSAGESISLDEFKSFCHFTTHLEDFAIAMQMFSLAHRPVRLAEFKRAVKVATGQELSNNILDTVFKIFDLDGDECLSHEEFLGVLKNRMHRGLWVPQHQSIQEYWKCVKKESIKGVKEVWKQAGKGLF
modifications: disulfide to MICU1 (C413 of MICU2 and C463 of MICU1 in range)
Question: Does B2 bind [2]?
Answer: binds

From PMC7544431 (Nature, 2020)
